Consider three proteins from PMC7702303, “Biochemical and transcript level differences between the three human phosphofructokinases show optimisation of each isoform for specific metabolic niches” (Biochemical Journal, 2020).

Substrate in series [1]: O=C(CO)[C@@H](O)[C@H](O)[C@H](O)COP(=O)(O)O
The experiment in a line: ALDO-TIM-G3PDH enzyme-linked kinetic assay, PFK-P. The format is biochemical, human. To be noted: other: PFK-P; F6P titration, ATP 0.5 mM; n = 6; mean (SD); pH 7.4; 25.0 °C. The procedure:
(§1) Recombinant human PFKs were expressed in PFK-deficient Saccharomyces cerevisiae and purified using the methods described previously, adapting earlier materials and protocols. Production of PFK intended for use in ATP titration experiments used 1 mM F6P as a tetramer stabilising agent in protein purification and storage buffers. Production of PFK intended for use in F6P titration experiments used 1 mM ATP as a tetramer stabilising agent in protein purification and storage buffers. Experimental details on the purification and characterisation procedures including figures showing SDS–PAGE gels of the highly pure PFKs used in the kinetic experiments described in this work have been recently published.
(§2) Assay buffer consisted of 50 mM TEA, 100 mM KCl, 10 mM MgCl2, 1 mM Tris(2-carboxyethyl)phosphine hydrochloride (TCEP), 10% glycerol, pH 7.4. Assay mix consisted of 5 units/ml glycerol-3-phosphate dehydrogenase (G3PDH, Sigma–Aldrich G6880), 2.5 units/ml aldolase (Sigma–Aldrich A2714), 25 units/ml triosephosphate isomerase (TIM, Sigma–Aldrich T6258), and 1.25 mM NADH. […] A SpectraMax M5 Multi-Mode Microplate Reader was used to measure A340nm at 13 s intervals for 10 min. […]
(§3) Time-dependent absorbance change was converted into rate of NADH oxidation (µM s^−1) or specific activity (µmol min^−1 mg protein^−1) using the Beer-Lambert law (molar extinction coefficient of NADH 6.22 mM^−1 cm^−1). […]

Series [2] deals with the molecule itself. Description: SEC; size-exclusion chromatography of purified recombinant PFK isoforms, buffer and protein concentration not told in the main text (Supplementary Figure S2); tetramer to dimers.
Substrate in series [3]: O=C(CO)[C@@H](O)[C@H](O)[C@H](O)COP(=O)(O)O
The experiment in a line: ALDO-TIM-G3PDH enzyme-linked kinetic assay, PFK-M. The format is biochemical, human. To be noted: other: PFK-M; F6P titration, ATP 0.5 mM; n = 6; mean (SD); pH 7.4; 25.0 °C. The procedure: as §1, §2, §3

Substrate in series [4]: O=C(CO)[C@@H](O)[C@H](O)[C@H](O)COP(=O)(O)O
Description: ALDO-TIM-G3PDH enzyme-linked kinetic assay, PFK-L. The format is biochemical, human. To be noted: other: PFK-L; F6P titration, ATP 0.5 mM; n = 6; mean (SD); pH 7.4; 25.0 °C. As for the experimental part:
as §1, §2, §3

Values joined by “and” are separate entries in the source; they are usually repeats but may differ in a detail not shown here. Equal values may be shown once.

B1: human 6-phosphofructokinase-1-kinase, platelet isoform (PFK-P) (enzyme, UniProt Q01813 1-784, looked up)
chain: MDADDSRAPKGSLRKFLEHLSGAGKAIGVLTSGGDAQGMNAAVRAVVRMGIYVGAKVYFIYEGYQGMVDGGSNIAEADWESVSSILQVGGTIIGSARCQAFRTREGRLKAACNLLQRGITNLCVIGGDGSLTGANLFRKEWSGLLEELARNGQIDKEAVQKYAYLNVVGMVGSIDNDFCGTDMTIGTDSALHRIIEVVDAIMTTAQSHQRTFVLEVMGRHCGYLALVSALACGADWVFLPESPPEEGWEEQMCVKLSENRARKKRLNIIIVAEGAIDTQNKPITSEKIKELVVTQLGYDTRVTILGHVQRGGTPSAFDRILASRMGVEAVIALLEATPDTPACVVSLNGNHAVRLPLMECVQMTQDVQKAMDERRFQDAVRLRGRSFAGNLNTYKRLAIKLPDDQIPKTNCNVAVINVGAPAAGMNAAVRSAVRVGIADGHRMLAIYDGFDGFAKGQIKEIGWTDVGGWTGQGGSILGTKRVLPGKYLEEIATQMRTHSINALLIIGGFEAYLGLLELSAAREKHEEFCVPMVMVPATVSNNVPGSDFSIGADTALNTITDTCDRIKQSASGTKRRVFIIETMGGYCGYLANMGGLAAGADAAYIFEEPFDIRDLQSNVEHLTEKMKTTIQRGLVLRNESCSENYTTDFIYQLYSEEGKGVFDCRKNVLGHMQQGGAPSPFDRNFGTKISARAMEWITAKLKEARGRGKKFTTDDSICVLGISKRNVIFQPVAELKKQTDFEHRIPKEQWWLKLRPLMKILAKYKASYDVSDSGQLEHVQPWSV
notes: human phosphofructokinase, platelet isoform (PFK-P), recombinant; Active form is a tetramer in equilibrium with dimers
By kcat is commonly meant the maximal rate divided by the concentration of active sites. One may read the stoichiometry N as a count of units in the complex or per binding partner. In the case of B1, the turnover number (kcat) in series [1] was determined as 1.83 s⁻¹. Also, the “stoichiometry N” value in series [2] was 4 and 2.

B2: human 6-phosphofructokinase-1-kinase, muscle isoform (PFK-M) (enzyme, UniProt P08237 1-780, looked up)
chain: MTHEEHHAAKTLGIGKAIAVLTSGGDAQGMNAAVRAVVRVGIFTGARVFFVHEGYQGLVDGGDHIKEATWESVSMMLQLGGTVIGSARCKDFREREGRLRAAYNLVKRGITNLCVIGGDGSLTGADTFRSEWSDLLSDLQKAGKITDEEATKSSYLNIVGLVGSIDNDFCGTDMTIGTDSALHRIMEIVDAITTTAQSHQRTFVLEVMGRHCGYLALVTSLSCGADWVFIPECPPDDDWEEHLCRRLSETRTRGSRLNIIIVAEGAIDKNGKPITSEDIKNLVVKRLGYDTRVTVLGHVQRGGTPSAFDRILGSRMGVEAVMALLEGTPDTPACVVSLSGNQAVRLPLMECVQVTKDVTKAMDEKKFDEALKLRGRSFMNNWEVYKLLAHVRPPVSKSGSHTVAVMNVGAPAAGMNAAVRSTVRIGLIQGNRVLVVHDGFEGLAKGQIEEAGWSYVGGWTGQGGSKLGTKRTLPKKSFEQISANITKFNIQGLVIIGGFEAYTGGLELMEGRKQFDELCIPFVVIPATVSNNVPGSDFSVGADTALNTICTTCDRIKQSAAGTKRRVFIIETMGGYCGYLATMAGLAAGADAAYIFEEPFTIRDLQANVEHLVQKMKTTVKRGLVLRNEKCNENYTTDFIFNLYSEEGKGIFDSRKNVLGHMQQGGSPTPFDRNFATKMGAKAMNWMSGKIKESYRNGRIFANTPDSGCVLGMRKRALVFQPVAELKDQTDFEHRIPKEQWWLKLRPILKILAKYEIDLDTSDHAHLEHITRKRSGEAAV
notes: human phosphofructokinase, muscle isoform (PFK-M), recombinant; Active form is a tetramer in equilibrium with dimers
As for B2, the kcat in series [3] came out at 8.11 s⁻¹. Moreover, in series [2], the “stoichiometry N” value was found to be 4.

B3: human 6-phosphofructokinase-1-kinase, liver isoform (PFK-L) (enzyme, UniProt P17858 1-780, looked up)
chain: MAAVDLEKLRASGAGKAIGVLTSGGDAQGMNAAVRAVTRMGIYVGAKVFLIYEGYEGLVEGGENIKQANWLSVSNIIQLGGTIIGSARCKAFTTREGRRAAAYNLVQHGITNLCVIGGDGSLTGANIFRSEWGSLLEELVAEGKISETTARTYSHLNIAGLVGSIDNDFCGTDMTIGTDSALHRIMEVIDAITTTAQSHQRTFVLEVMGRHCGYLALVSALASGADWLFIPEAPPEDGWENFMCERLGETRSRGSRLNIIIIAEGAIDRNGKPISSSYVKDLVVQRLGFDTRVTVLGHVQRGGTPSAFDRILSSKMGMEAVMALLEATPDTPACVVTLSGNQSVRLPLMECVQMTKEVQKAMDDKRFDEATQLRGGSFENNWNIYKLLAHQKPPKEKSNFSLAILNVGAPAAGMNAAVRSAVRTGISHGHTVYVVHDGFEGLAKGQVQEVGWHDVAGWLGRGGSMLGTKRTLPKGQLESIVENIRIYGIHALLVVGGFEAYEGVLQLVEARGRYEELCIVMCVIPATISNNVPGTDFSLGSDTAVNAAMESCDRIKQSASGTKRRVFIVETMGGYCGYLATVTGIAVGADAAYVFEDPFNIHDLKVNVEHMTEKMKTDIQRGLVLRNEKCHDYYTTEFLYNLYSSEGKGVFDCRTNVLGHLQQGGAPTPFDRNYGTKLGVKAMLWLSEKLREVYRKGRVFANAPDSACVIGLKKKAVAFSPVTELKKDTDFEHRMPREQWWLSLRLMLKMLAQYRISMAAYVSGELEHVTRRTLSMDKGF
notes: human phosphofructokinase, liver isoform (PFK-L), recombinant; Active form is a tetramer in equilibrium with dimers
As to B3, in series [4], the kcat worked out at 5.38 s⁻¹. Also, the binding result in series [2] is on record as “binds”.
